US20250144209A1 (Alector, published 2025)

T1: mouse SIRPA expressed on CHO cells (mouse, UniProt P97797 32-513)
T1 construct: also called CHO-mSIRPA; CHO-MuSIRPα
T1 sequence: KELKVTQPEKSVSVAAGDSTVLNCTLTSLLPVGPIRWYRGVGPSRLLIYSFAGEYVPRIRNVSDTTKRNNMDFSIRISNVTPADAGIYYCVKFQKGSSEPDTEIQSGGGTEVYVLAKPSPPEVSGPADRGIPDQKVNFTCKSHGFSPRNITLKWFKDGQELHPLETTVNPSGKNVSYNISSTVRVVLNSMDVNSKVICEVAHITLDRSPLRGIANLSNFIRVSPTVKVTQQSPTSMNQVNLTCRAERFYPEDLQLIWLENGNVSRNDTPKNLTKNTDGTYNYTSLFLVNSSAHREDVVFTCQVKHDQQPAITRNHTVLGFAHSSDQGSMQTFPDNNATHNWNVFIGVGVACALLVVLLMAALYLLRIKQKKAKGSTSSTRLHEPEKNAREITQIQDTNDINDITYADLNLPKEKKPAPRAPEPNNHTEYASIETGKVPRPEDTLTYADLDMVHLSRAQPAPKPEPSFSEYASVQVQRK


Columns and labels:
[1] = target: T1, mouse SIRPA expressed on CHO cells; test: flow cytometry on CHO-MuSIRPα cells
[2] = target: T2, human SIRPA expressed on cells (human, UniProt P78324 31-504); test: flow cytometry on CHO-HuSIRPα cells
Experimental: Initial characterization of SIRPA antibodies involved screening their ability to bind the human receptor ectopically expressed on the rodent Chinese hamster ovary cell line, henceforth referred to as CHO-huSIRPA, followed by screening on primary human macrophages. Cells were harvested, plated at 10⁵ cells/well in a 96-well plate, washed, and incubated in 100 μl FACS buffer containing Fc blocking reagent and […] of indicated monoclonal antibody. Cells were then washed twice and incubated in FACS buffer containing APC-conjugated secondary antibody diluted 1:200 for 30 minutes on ice. Cells were washed twice in cold FACS buffer and acquired on a BD FACS Canto. Data analysis and calculation of mean fluorescence intensity (MFI) values or % positive cells was performed with FlowJo (TreeStar) software version 10.0.7.

[3] = target: T3, recombinant soluble human SIRPA antigen, His-tagged (human, UniProt P78324 31-373); test: SPR, Biacore T200, antibody captured by anti-mouse IgG on CM5, soluble human SIRPA in solution, 1:1 fit
T3 construct: also called His-tagged soluble HuSIRPA protein; monomeric human SIRPA antigen; not shown: His tag
Experimental: Binding studies were performed using a Biacore T200 (GE). An anti-mouse IgG capture antibody was amine coupled to a CM5 sensor chip using standard NHS/EDC activation. SIRPA antibodies were diluted to 50 nM in 1×HBS-EP+ running buffer and captured onto sensor chip surface. Serial dilutions of recombinant soluble human SIRPA antigen were injected over captured SIRPA antibodies to record sensorgram traces. Data were processed by subtracting RU values from the reference cell as well as the buffer injections.

[4] = target: T2, human SIRPA expressed on cells; test: flow cytometry titration on CHO-huSIRPA cells at 4 C
Experimental: Serial dilutions of monoclonal antibodies were added to 10⁵ CHO-huSIRPA cells and allowed to achieve binding equilibrium at 4° C. After addition of fluorescently labeled secondary antibody and brief washing steps, MFI values as a function of titrated antibody concentration was recorded via FACS analysis (FIG. 3D). Curves were fit using nonlinear regression analysis with Graphpad Prism 6 software.

[5] = target: T1, mouse SIRPA expressed on CHO cells; test: flow cytometry on CHO-mSIRPA cells
[6] = target: T2, human SIRPA expressed on cells; test: cell-based or functional assay
[7] = target: T4, human SIRPA-DAP12 chimera expressed on BWZ/NFAT-luciferase reporter cells (human, UniProt O43914 62-113, limits assumed); test: flow cytometry on BWZ-Human SIRPA cells, titrated antibody detected with anti-mouse IgG APC (Relative MFI)
T4 construct: domain: intracellular ITAM motif; The intracellular ITIM motif of SIRPA was substituted with the intracellular ITAM motif of DAP12; also called BWZ-huSIRPA; BWZ-HuSIRPA

T2 sequence (P78324 31-504): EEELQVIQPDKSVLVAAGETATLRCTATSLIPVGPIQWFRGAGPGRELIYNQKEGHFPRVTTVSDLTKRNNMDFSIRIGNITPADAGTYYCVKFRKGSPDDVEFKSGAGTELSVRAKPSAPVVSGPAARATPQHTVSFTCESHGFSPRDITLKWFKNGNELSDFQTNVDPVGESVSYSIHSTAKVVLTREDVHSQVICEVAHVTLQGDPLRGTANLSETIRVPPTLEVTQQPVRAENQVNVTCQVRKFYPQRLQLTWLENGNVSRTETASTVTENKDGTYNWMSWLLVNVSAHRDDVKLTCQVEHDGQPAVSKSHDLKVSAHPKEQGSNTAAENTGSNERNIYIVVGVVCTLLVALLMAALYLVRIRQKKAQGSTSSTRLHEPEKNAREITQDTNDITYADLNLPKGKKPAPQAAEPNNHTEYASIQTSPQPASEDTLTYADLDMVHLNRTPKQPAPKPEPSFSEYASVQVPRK
T3 sequence (P78324 31-373 limits assumed): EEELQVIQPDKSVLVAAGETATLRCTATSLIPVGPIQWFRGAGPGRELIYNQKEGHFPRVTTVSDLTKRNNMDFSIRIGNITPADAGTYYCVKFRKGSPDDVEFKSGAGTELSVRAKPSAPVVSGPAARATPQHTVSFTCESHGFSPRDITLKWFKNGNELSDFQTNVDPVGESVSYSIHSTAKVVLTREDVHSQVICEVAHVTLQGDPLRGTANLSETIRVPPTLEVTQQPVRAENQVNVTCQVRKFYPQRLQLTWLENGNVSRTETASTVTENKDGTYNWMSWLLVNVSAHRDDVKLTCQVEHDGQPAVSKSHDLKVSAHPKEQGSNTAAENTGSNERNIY

Molecule	MFI, fold over background (fold over background) [1]	MFI, fold over background (fold over background) [2]	MFI, fold over background [1] [fold over background]	MFI, fold over background [2] [fold over background]	Kd [3] [nM]	koff [3] [s⁻¹]	kon [3] [M⁻¹ s⁻¹]	EC50 [4] [nM]	binding result [5]	phagocytosis of labeled Raji cells: CD14+/pHrodo+ macrophages over isotype-treated macrophages [6] [fold]	EC50 (read off the curve) [7] [nM]	phagocytic activity of treated macrophages (FIG. 8C) [6] [fold]
mouse IgG1 isotype control (antibody)	1	1										
9C2 (antibody, IgG1, V domains shown, also called anti-SIRPA antibody 9C2; 9C2-DyLight 650) VH: EFQLQQSGAELVKPGASVKISCKASGYSLTGYNMNWVKQSRGKSLEWIGNINPHYGSSTYNQNFKDKATLTVDKSSSAAYMQFNSLTSEDSAVYYCAREGYDGVFDYWGQGTTLTVSS VL: QIVLSQSPAILSASPGEKVTMTCRASSSVSYMHWYQQKPGSSPKPWIYVTSNLASGVPTRFSGSGSGTSYSLTISRVEAEDAATYYCQQWSSNPRTFGGGTKLEIK			0.981	128	80	0.0045	54000	1.6	no binding (tested: 1.0 pg/ml (so in the source))	1.5		
3F9 (antibody, IgG1, V domains shown, also called anti-SIRPA antibody 3F9; glycosylated 3F9) VH: EVKLVESGGGLVKPGGSLKLSCAASGFTFSSYAMSWVRQTPEKRLEWVATISDYGGSYTYYPDSVKGRFTISRDNAKYTLYLQMSSLRSEDTALYYCARPPYDDYYGGFAYWGQGTLVTVSA VL: DIVLTQSPASLAVSLGQRATISCRASKSVSSSGYSYMHWYQQKPGQPPKLLIYLASNLESGVPARFSGSGSGTDFTLNIHPVEEEDAATYYCQHNRELPCTFGGGTKLEIK			0.998	137	10	0.00057	55000	2.6	no binding (tested: 1.0 pg/ml (so in the source))	2.5	~1	2
deglycosylated 3F9 (antibody, IgG1, V domains shown, Fc-linked glycan removed with EndoS (on the heavy chain constant region, which is not given), also called deglycosylated 3F9 variant; deglycosylated form of 3F9) VH: EVKLVESGGGLVKPGGSLKLSCAASGFTFSSYAMSWVRQTPEKRLEWVATISDYGGSYTYYPDSVKGRFTISRDNAKYTLYLQMSSLRSEDTALYYCARPPYDDYYGGFAYWGQGTLVTVSA VL: DIVLTQSPASLAVSLGQRATISCRASKSVSSSGYSYMHWYQQKPGQPPKLLIYLASNLESGVPARFSGSGSGTDFTLNIHPVEEEDAATYYCQHNRELPCTFGGGTKLEIK											~1	
